These results are taken from patent US20140087995A1 (published 2014).

First the molecules themselves.
T1: human amylin receptor (Amylin 3(a) receptor: human calcitonin receptor co-expressed with RAMP-3) (human, UniProt P30988 25-474; O60896 24-148, limits assumed)
T1 construct: whole, on cells; Used as cell membranes prepared from the Amylin 3(a)/CRE-luc BHK cells (Assay V); the complex is called the human amylin receptor; also called hAmylin-R; hAmylinR
T1 sequence (looked up) 1: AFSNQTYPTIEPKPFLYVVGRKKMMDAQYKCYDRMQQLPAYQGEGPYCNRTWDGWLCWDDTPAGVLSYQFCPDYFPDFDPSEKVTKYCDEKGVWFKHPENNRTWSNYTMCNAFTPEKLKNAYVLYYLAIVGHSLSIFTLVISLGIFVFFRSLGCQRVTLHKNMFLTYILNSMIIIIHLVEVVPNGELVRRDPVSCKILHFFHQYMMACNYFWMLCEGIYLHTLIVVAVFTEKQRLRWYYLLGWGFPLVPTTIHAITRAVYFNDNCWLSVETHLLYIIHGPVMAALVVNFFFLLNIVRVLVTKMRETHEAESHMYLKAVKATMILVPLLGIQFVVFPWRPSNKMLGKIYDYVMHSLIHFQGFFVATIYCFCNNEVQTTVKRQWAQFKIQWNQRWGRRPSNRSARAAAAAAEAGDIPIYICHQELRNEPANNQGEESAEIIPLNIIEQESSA
T1 sequence (looked up) 2: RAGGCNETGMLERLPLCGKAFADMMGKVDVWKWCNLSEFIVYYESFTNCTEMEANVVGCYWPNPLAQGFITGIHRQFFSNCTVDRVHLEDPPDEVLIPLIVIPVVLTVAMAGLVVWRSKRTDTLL

B1: N^ε1-[(4S)-4-carboxy-4-[[(4S)-4-carboxy-4-(19-carboxynonadecanoylamino)butanoyl]amino]butanoyl]-[Glu14,Arg17,Pro21,Pro27,Pro34,Glu35]-h-amylin (peptide)
peptide: K([γGlu-γGlu-C20 diacid])CNTATCATQRLAEFLRHSSPNFGAIPSSTNVGPETY-NH2
modifications: disulfide 2-7 (inferred)
notes: modifications are with respect to human amylin
B2: N^ε1-[(4S)-4-carboxy-4-(17-carboxyheptadecanoylamino)butanoyl]-[Arg17,Pro21,Pro27,His34]-h-amylin (peptide)
peptide: K([γGlu-C18 diacid])CNTATCATQRLANFLRHSSPNFGAIPSSTNVGHNTY-NH2
modifications: disulfide 2-7; N-terminus assumed
SMILES: CC[C@H](C)[C@H](NC(=O)[C@H](C)NC(=O)CNC(=O)[C@H](Cc1ccccc1)NC(=O)[C@H](CC(N)=O)NC(=O)[C@@H]1CCCN1C(=O)[C@H](CO)NC(=O)[C@H](CO)NC(=O)[C@H](Cc1c[nH]cn1)NC(=O)[C@H](CCCNC(=N)N)NC(=O)[C@H](CC(C)C)NC(=O)[C@H](Cc1ccccc1)NC(=O)[C@H](CC(N)=O)NC(=O)[C@H](C)NC(=O)[C@H](CC(C)C)NC(=O)[C@H](CCCNC(=N)N)NC(=O)[C@H](CCC(N)=O)NC(=O)[C@@H](NC(=O)[C@H](C)NC(=O)[C@@H]1CSSC[C@H](NC(=O)[C@@H](N)CCCCNC(=O)CC[C@H](NC(=O)CCCCCCCCCCCCCCCCC(=O)O)C(=O)O)C(=O)N[C@@H](CC(N)=O)C(=O)N[C@@H]([C@@H](C)O)C(=O)N[C@@H](C)C(=O)N[C@@H]([C@@H](C)O)C(=O)N1)[C@@H](C)O)C(=O)N1CCC[C@H]1C(=O)N[C@@H](CO)C(=O)N[C@@H](CO)C(=O)N[C@H](C(=O)N[C@@H](CC(N)=O)C(=O)N[C@H](C(=O)NCC(=O)N[C@@H](Cc1c[nH]cn1)C(=O)N[C@@H](CC(N)=O)C(=O)N[C@H](C(=O)N[C@@H](Cc1ccc(O)cc1)C(N)=O)[C@@H](C)O)C(C)C)[C@@H](C)O
notes: as for B1
B3: N^ε1-[(4S)-4-carboxy-4-(13-carboxytridecanoylamino)butanoyl]-[Arg17,Pro21,Pro27,His34]-h-amylin (peptide)
peptide: K([γGlu-C14 diacid])CNTATCATQRLANFLRHSSPNFGAIPSSTNVGHNTY-NH2
modifications: disulfide 2-7; N-terminus assumed
SMILES: CC[C@H](C)[C@H](NC(=O)[C@H](C)NC(=O)CNC(=O)[C@H](Cc1ccccc1)NC(=O)[C@H](CC(N)=O)NC(=O)[C@@H]1CCCN1C(=O)[C@H](CO)NC(=O)[C@H](CO)NC(=O)[C@H](Cc1c[nH]cn1)NC(=O)[C@H](CCCNC(=N)N)NC(=O)[C@H](CC(C)C)NC(=O)[C@H](Cc1ccccc1)NC(=O)[C@H](CC(N)=O)NC(=O)[C@H](C)NC(=O)[C@H](CC(C)C)NC(=O)[C@H](CCCNC(=N)N)NC(=O)[C@H](CCC(N)=O)NC(=O)[C@@H](NC(=O)[C@H](C)NC(=O)[C@@H]1CSSC[C@H](NC(=O)[C@@H](N)CCCCNC(=O)CC[C@H](NC(=O)CCCCCCCCCCCCC(=O)O)C(=O)O)C(=O)N[C@@H](CC(N)=O)C(=O)N[C@@H]([C@@H](C)O)C(=O)N[C@@H](C)C(=O)N[C@@H]([C@@H](C)O)C(=O)N1)[C@@H](C)O)C(=O)N1CCC[C@H]1C(=O)N[C@@H](CO)C(=O)N[C@@H](CO)C(=O)N[C@H](C(=O)N[C@@H](CC(N)=O)C(=O)N[C@H](C(=O)NCC(=O)N[C@@H](Cc1c[nH]cn1)C(=O)N[C@@H](CC(N)=O)C(=O)N[C@H](C(=O)N[C@@H](Cc1ccc(O)cc1)C(N)=O)[C@@H](C)O)C(C)C)[C@@H](C)O
notes: as for B1
B4: N^ε1-[(4S)-4-carboxy-4-(15-carboxypentadecanoylamino)butanoyl]-[Arg17,Pro21,Pro27,His34]-h-amylin (peptide)
peptide: K([γGlu-C16 diacid])CNTATCATQRLANFLRHSSPNFGAIPSSTNVGHNTY-NH2
modifications: disulfide 2-7; N-terminus assumed
SMILES: CC[C@H](C)[C@H](NC(=O)[C@H](C)NC(=O)CNC(=O)[C@H](Cc1ccccc1)NC(=O)[C@H](CC(N)=O)NC(=O)[C@@H]1CCCN1C(=O)[C@H](CO)NC(=O)[C@H](CO)NC(=O)[C@H](Cc1c[nH]cn1)NC(=O)[C@H](CCCNC(=N)N)NC(=O)[C@H](CC(C)C)NC(=O)[C@H](Cc1ccccc1)NC(=O)[C@H](CC(N)=O)NC(=O)[C@H](C)NC(=O)[C@H](CC(C)C)NC(=O)[C@H](CCCNC(=N)N)NC(=O)[C@H](CCC(N)=O)NC(=O)[C@@H](NC(=O)[C@H](C)NC(=O)[C@@H]1CSSC[C@H](NC(=O)[C@@H](N)CCCCNC(=O)CC[C@H](NC(=O)CCCCCCCCCCCCCCC(=O)O)C(=O)O)C(=O)N[C@@H](CC(N)=O)C(=O)N[C@@H]([C@@H](C)O)C(=O)N[C@@H](C)C(=O)N[C@@H]([C@@H](C)O)C(=O)N1)[C@@H](C)O)C(=O)N1CCC[C@H]1C(=O)N[C@@H](CO)C(=O)N[C@@H](CO)C(=O)N[C@H](C(=O)N[C@@H](CC(N)=O)C(=O)N[C@H](C(=O)NCC(=O)N[C@@H](Cc1c[nH]cn1)C(=O)N[C@@H](CC(N)=O)C(=O)N[C@H](C(=O)N[C@@H](Cc1ccc(O)cc1)C(N)=O)[C@@H](C)O)C(C)C)[C@@H](C)O
notes: as for B1
B5: N^-1-[(4S)-4-carboxy-4-(19-carboxynonadecanoylamino)butanoyl]-Gly[Arg1,His14,Arg17,Pro21,Pro27,His34]-h-amylin (peptide)
peptide: {C20 diacid-γGlu}-GRCNTATCATQRLAHFLRHSSPNFGAIPSSTNVGHNTY-NH2
modifications: disulfide 3-8
SMILES: CC[C@H](C)[C@H](NC(=O)[C@H](C)NC(=O)CNC(=O)[C@H](Cc1ccccc1)NC(=O)[C@H](CC(N)=O)NC(=O)[C@@H]1CCCN1C(=O)[C@H](CO)NC(=O)[C@H](CO)NC(=O)[C@H](Cc1c[nH]cn1)NC(=O)[C@H](CCCNC(=N)N)NC(=O)[C@H](CC(C)C)NC(=O)[C@H](Cc1ccccc1)NC(=O)[C@H](Cc1c[nH]cn1)NC(=O)[C@H](C)NC(=O)[C@H](CC(C)C)NC(=O)[C@H](CCCNC(=N)N)NC(=O)[C@H](CCC(N)=O)NC(=O)[C@@H](NC(=O)[C@H](C)NC(=O)[C@@H]1CSSC[C@H](NC(=O)[C@H](CCCNC(=N)N)NC(=O)CNC(=O)CC[C@H](NC(=O)CCCCCCCCCCCCCCCCCCC(=O)O)C(=O)O)C(=O)N[C@@H](CC(N)=O)C(=O)N[C@@H]([C@@H](C)O)C(=O)N[C@@H](C)C(=O)N[C@@H]([C@@H](C)O)C(=O)N1)[C@@H](C)O)C(=O)N1CCC[C@H]1C(=O)N[C@@H](CO)C(=O)N[C@@H](CO)C(=O)N[C@H](C(=O)N[C@@H](CC(N)=O)C(=O)N[C@H](C(=O)NCC(=O)N[C@@H](Cc1c[nH]cn1)C(=O)N[C@@H](CC(N)=O)C(=O)N[C@H](C(=O)N[C@@H](Cc1ccc(O)cc1)C(N)=O)[C@@H](C)O)C(C)C)[C@@H](C)O
notes: modifications are with respect to human amylin; also called compound 100
B6: N{-1}-[(4S)-4-carboxy-4-(19-carboxynonadecanoylamino)butanoyl]-Gly[Arg1,His14,Arg17,Pro21,Pro27]-h-amylin (peptide)
peptide: {C20 diacid-γGlu}-GRCNTATCATQRLAHFLRHSSPNFGAIPSSTNVGSNTY-NH2
modifications: disulfide 3-8
SMILES: CC[C@H](C)[C@H](NC(=O)[C@H](C)NC(=O)CNC(=O)[C@H](Cc1ccccc1)NC(=O)[C@H](CC(N)=O)NC(=O)[C@@H]1CCCN1C(=O)[C@H](CO)NC(=O)[C@H](CO)NC(=O)[C@H](Cc1c[nH]cn1)NC(=O)[C@H](CCCNC(=N)N)NC(=O)[C@H](CC(C)C)NC(=O)[C@H](Cc1ccccc1)NC(=O)[C@H](Cc1c[nH]cn1)NC(=O)[C@H](C)NC(=O)[C@H](CC(C)C)NC(=O)[C@H](CCCNC(=N)N)NC(=O)[C@H](CCC(N)=O)NC(=O)[C@@H](NC(=O)[C@H](C)NC(=O)[C@@H]1CSSC[C@H](NC(=O)[C@H](CCCNC(=N)N)NC(=O)CNC(=O)CC[C@H](NC(=O)CCCCCCCCCCCCCCCCCCC(=O)O)C(=O)O)C(=O)N[C@@H](CC(N)=O)C(=O)N[C@@H]([C@@H](C)O)C(=O)N[C@@H](C)C(=O)N[C@@H]([C@@H](C)O)C(=O)N1)[C@@H](C)O)C(=O)N1CCC[C@H]1C(=O)N[C@@H](CO)C(=O)N[C@@H](CO)C(=O)N[C@H](C(=O)N[C@@H](CC(N)=O)C(=O)N[C@H](C(=O)NCC(=O)N[C@@H](CO)C(=O)N[C@@H](CC(N)=O)C(=O)N[C@H](C(=O)N[C@@H](Cc1ccc(O)cc1)C(N)=O)[C@@H](C)O)C(C)C)[C@@H](C)O
notes: modifications are with respect to human amylin; also called compound 99

Numbered stars: 1 amine (or outer) side, 2 acyl side, 3 side chain; on linkers, the order of the positions; unused ones are H or OH. Bridge positions count the residues as written; N and C are the ends. Side chains are listed from the residue outwards. Ends that are not written are not given here. * marks the point of attachment. C20 diacid = O=C(O)CCCCCCCCCCCCCCCCCCC(=O)*; C18 diacid = O=C(O)CCCCCCCCCCCCCCCCC(=O)*; C16 diacid = O=C(O)CCCCCCCCCCCCCCC(=O)*; γGlu = O=C(O)[C@H](CCC(=O)[*:2])N[*:1]; C14 diacid = O=C(O)CCCCCCCCCCCCC(=O)*

What is called IC50 is the concentration at which inhibition is half-maximal.

The target in the test is T1, human amylin receptor (Amylin 3(a) …). The test is described as follows: SPA competition binding, displacement of 125I-rat amylin from membranes of BHK cells with human calcitonin receptor + RAMP-3 (Assay V). As to the method:
The binding assay was performed using scintillation proximity assay (SPA) beads (RPNQ0001) from PerkinElmer and cell membranes from the Amylin 3(a)/CRE-luc cells (as described in Assay (II)) were used. Membranes were prepared in the following way; the cells were rinsed with PBS and incubated with Versene for approximately 5 min before harvesting. The cells were flushed with PBS and the cell-suspension was centrifuged for 5 min at 1000 rpm. Cells were homogenized (ultrathurrax) in a buffer containing 20 mM Na-HEPES and 10 mM EDTA (pH 7.4) and centrifuged at 20.000 rpm for 15 min. The resulting pellet was resuspended, homogenized and centrifuged (20.000 rpm, 15 min) in a buffer containing 20 mM Na-HEPES and 0.1 mM EDTA (pH 7.4, buffer 2). The resulting pellet was resuspended in buffer 2 and protein concentration was measured (BCA protein Assay, Pierce). The homogenate was kept cold during the whole procedure. The membranes were kept at −80° C. until use. The assay was performed in a 384 well Optiplate (PerkinElmer) in a total volume of 40 ul. Membranes were mixed with SPA beads. Final concentration of membranes 35 ng/μL final and SPA beads was 0.05 mg/well. Test-compounds were dissolved in DMSO and further diluted in assay buffer (50 mM Hepes, pH 7.4, 1 mM CaCl2, 5 mM MgCl₂, 0.1% OA and 0.02% Tween20). […] The final mixture was incubated with shaking at 400 rpm for 120 min at 25° C. prior to centrifugation (1500 rpm, 10 min). Samples were analyzed on TopCounter™ (Packard). The IC₅₀ was calculated using (one site binding competition analysis) GraphPad Prism5 as a measure of receptor affinity.
For B1, the concentration for half-maximal inhibition (IC50) was determined as 0.121 nM.

As to B2, the half-maximal inhibitory concentration (IC50) was found to be 0.382 nM. Next, B3: 1.04 nM. On to B4, for which the IC50 is 0.58 nM. In the case of B5, the IC50 came out at 1.01 nM. Turning to B6, the half-inhibitory concentration (IC50) worked out at 0.348 nM.
